These results are taken from the Immune Epitope Database (IEDB).

Experiment [1] deals with HLA-A*01:01. Description: IEDB peptide-MHC binding, purified MHC/direct/fluorescence; filed as Kd, often an IC50 or EC50 that approximates it; ≥ and ≤ were set here for values at or beyond the usual limits of such assays.
Experiment [2] has as its target HLA-A*02:01. Described as above.
The target in experiment [3] is HLA-A*03:01. Described as above.
The target in another experiment is HLA-A*11:01. The description is as above.
A further experiment has as its target HLA-A*24:02. The description is as above. Conditions: source organism: Vibrio parahaemolyticus.
For experiment [4], the target named is HLA-A*26:01. The experiment is described as above.
In another experiment the target is HLA-A*31:01. Described as above.
Experiment [5] has as its target HLA-A*69:01. The description is as above.
A further experiment deals with HLA-B*07:02. Described as above. The following applies: source organism: Vibrio parahaemolyticus.
The target in the next experiment is HLA-B*08:02. Described as above. The following applies: source organism: Vibrio parahaemolyticus RIMD 2210633.
Experiment [6] concerns the target HLA-B*15:01. Described as above.
For experiment [7], the target named is HLA-B*18:01. The description is as above. The following applies: source organism: Vibrio parahaemolyticus.
A further experiment deals with HLA-B*27:05. The experiment is described as above.
The target in a further experiment is HLA-B*40:01. The experiment is described as above.
The next experiment concerns the target HLA-B*44:02. The experiment is described as above. The following applies: source organism: Vibrio parahaemolyticus.
Experiment [8] deals with HLA-B*46:01. The experiment is described as above. The following applies: source organism: Vibrio parahaemolyticus.
Experiment [9] concerns the target HLA-B*58:01. The description is as above.
Another experiment addresses HLA-B*08:01. Kind of experiment: IEDB peptide-MHC binding, purified MHC/competitive/fluorescence; filed as Kd, often an IC50 or EC50 that approximates it; ≥ and ≤ were set here for values at or beyond the usual limits of such assays.
In the next experiment the target is HLA-B*51:01. The experiment is described as above.
In another experiment the target is HLA-B*48:01. Description: IEDB peptide-MHC binding, purified MHC/direct/fluorescence; filed as Kd, often an IC50 or EC50 that approximates it; ≥ and ≤ were set here for values at or beyond the usual limits of such assays. Conditions: source organism: Camelpox virus M-96.
A further experiment concerns the target HLA-B*57:01. The description is as above. Conditions: source organism: Camelpox virus M-96.
The target in the next experiment is HLA-A*02:06. Description: IEDB peptide-MHC binding, purified MHC/competitive/fluorescence; filed as Kd, often an IC50 or EC50 that approximates it; ≥ and ≤ were set here for values at or beyond the usual limits of such assays. The following applies: source organism: Vaccinia virus WR.
A further experiment deals with HLA-A*30:01. Described as above. Conditions: source organism: Vaccinia virus WR.
Experiment [10] has as its target HLA-B*15:01. Described as above.
For the next experiment, the target named is HLA-B*15:17. The experiment is described as above. Conditions: source organism: Vaccinia virus WR.
Experiment [11] concerns the target HLA-B*18:01. The experiment is described as above.
A further experiment has as its target HLA-B*35:01. The description is as above.
In experiment [12] the target is HLA-A*03:01. The experiment is described as above.
A further experiment addresses HLA-A*02:03. Description: IEDB peptide-MHC binding, purified MHC/direct/fluorescence; filed as Kd, often an IC50 or EC50 that approximates it; ≥ and ≤ were set here for values at or beyond the usual limits of such assays. The following applies: source organism: Zaire ebolavirus.
The target in another experiment is HLA-A*02:11. The description is as above. The following applies: source organism: Zaire ebolavirus.
The target in the next experiment is HLA-A*02:12. The description is as above. The following applies: source organism: Zaire ebolavirus.
In another experiment the target is HLA-A*02:16. Described as above. Conditions: source organism: Zaire ebolavirus.
A further experiment concerns the target HLA-A*02:19. The description is as above. The following applies: source organism: Zaire ebolavirus.
The target in a further experiment is HLA-A*68:02. The description is as above. Conditions: source organism: Zaire ebolavirus.
For experiment [13], the target named is HLA-A*02:01. Kind of experiment: IEDB peptide-MHC binding, purified MHC/competitive/fluorescence; filed as Kd, often an IC50 or EC50 that approximates it; ≥ and ≤ were set here for values at or beyond the usual limits of such assays. The following applies: source organism: Zaire ebolavirus.
In experiment [14] the target is HLA-A*26:01. Described as above.
The target in experiment [15] is HLA-A*69:01. The description is as above. Conditions: source organism: Zaire ebolavirus.
For another experiment, the target named is HLA-B*27:03. The experiment is described as above. Conditions: source organism: Zaire ebolavirus.
For the next experiment, the target named is HLA-B*39:01. The experiment is described as above. Conditions: source organism: Zaire ebolavirus.
In experiment [16] the target is HLA-B*46:01. Described as above. Conditions: source organism: Zaire ebolavirus.
The target of experiment [17] is HLA-B*58:01. The description is as above.
For experiment [18], the target named is HLA-A*01:01. The experiment is described as above. Conditions: source organism: Salmonella enterica subsp. enterica serovar Typhi.
Where [19] appears, read: source organism: Vibrio parahaemolyticus.
Where [20] appears, read: source organism: Yersinia pestis Antiqua.
The mark [21] stands for this setting: source organism: Camelpox virus M-96.
The mark [22] stands for this setting: source organism: Vaccinia virus WR.
Where [23] appears, read: source organism: Shigella flexneri 5 str. 8401.
[24] abbreviates: source organism: Bacillus anthracis str. A2012.
[25] abbreviates: source organism: Zaire ebolavirus.
[26] abbreviates: source organism: Salmonella enterica subsp. enterica serovar Typhi.
Where [27] appears, read: source organism: Yersinia pestis Nepal516.

Usually Kd stands for the free concentration of one partner at which half of the binding sites on the other are occupied at equilibrium, for simple one-to-one binding.

In the case of ALSMGINTV, the Kd with HLA-A*01:01 [1] (setting [19]) is no less than 20 µM; with HLA-A*02:01 [2] (setting [19]), 0.0356 µM; in the experiment with HLA-A*03:01 [3] (setting [19]), no less than 20 µM; with HLA-A*11:01 (setting [19]), no less than 20 µM; with HLA-A*24:02, no less than 20 µM; with HLA-A*26:01 [4] (source organism: Vibrio parahaemolyticus RIMD 2210633) it was no less than 20 µM. In addition, the Kd with HLA-A*31:01 (setting [19]) is no less than 20 µM; with HLA-A*69:01 [5] (setting [19]), 2 µM; with HLA-B*07:02, no less than 20 µM; in the experiment with HLA-B*08:02 it was no less than 20 µM; with HLA-B*15:01 [6] (setting [19]), no less than 20 µM; with HLA-B*18:01 [7] it was no less than 20 µM. Besides, the Kd with HLA-B*27:05 (setting [19]), with HLA-B*40:01 (setting [19]), with HLA-B*44:02, in the experiment with HLA-B*46:01 [8], in the experiment with HLA-B*58:01 [9] (setting [19]) and with HLA-B*08:01 (source organism: Vibrio parahaemolyticus K5030) was no less than 20 µM in each case.

As for EAKLFFQVI, the values for the Kd in the experiment with HLA-B*08:01 (setting [20]) and in the experiment with HLA-B*51:01 (setting [20]) were 0.755 µM and 0.726 µM, respectively.

With FVHTLLKTY, the Kd with HLA-A*01:01 [1] (setting [21]) was no less than 20 µM; with HLA-A*02:01 [2] (setting [21]), no less than 20 µM; with HLA-A*03:01 [3] (setting [21]) it was no less than 20 µM; with HLA-A*11:01 (setting [21]) it was no less than 20 µM; in the experiment with HLA-A*26:01 [4] (setting [21]), 0.0733 µM; with HLA-A*31:01 (setting [21]), no less than 20 µM. Also, the dissociation constant Kd with HLA-A*69:01 [5] (setting [21]), with HLA-B*27:05 (setting [21]), with HLA-B*40:01 (setting [21]), with HLA-B*48:01, with HLA-B*57:01 and with HLA-B*58:01 [9] (setting [21]) was no less than 20 µM throughout. The Kd is 2.97 µM in the experiment with HLA-A*02:06; no less than 20 µM with HLA-A*30:01; 0.308 µM with HLA-B*15:01 [10] (setting [22]); 0.0554 µM with HLA-B*15:17; no less than 20 µM with HLA-B*18:01 [11] (setting [22]).

Consider LMLADHPEY, for which the Kd in the experiment with HLA-B*15:01 [6] (source organism: Mycobacterium tuberculosis) was 0.313 µM; in the experiment with HLA-B*35:01 (source organism: Mycobacterium tuberculosis C), 0.0186 µM.

With MFAAGLILY, the Kd with HLA-A*03:01 [12] (setting [23]) is no less than 20 µM; with HLA-B*15:01 [10] (setting [23]) it was no less than 20 µM; with HLA-B*35:01 (setting [23]) it was 1.06 µM.

As to MGMNAYFAY, the Kd was 0.0612 µM with HLA-B*15:01 [10] (setting [24]) and no more than 0.0001 µM in the experiment with HLA-B*35:01 (setting [24]).

As for VLMKQIPIW, the Kd with HLA-A*02:03, with HLA-A*02:11, with HLA-A*02:12, with HLA-A*02:16, with HLA-A*02:19 and in the experiment with HLA-A*03:01 [3] (setting [25]) was no less than 20 µM each time. Also, the Kd with HLA-A*68:02, with HLA-A*02:01 [13], with HLA-A*26:01 [14] (setting [25]), with HLA-A*69:01 [15], in the experiment with HLA-B*15:01 [10] (setting [25]) and with HLA-B*18:01 [11] (setting [25]) was no less than 20 µM in each case. Also, the Kd was no less than 20 µM in the experiment with HLA-B*27:03; no less than 20 µM with HLA-B*39:01; no less than 20 µM in the experiment with HLA-B*46:01 [16]; no less than 20 µM with HLA-B*51:01 (setting [25]); 0.0013 µM with HLA-B*58:01 [17] (setting [25]).

As to VSFLISWSL, in the experiment with HLA-B*58:01 [17] (setting [24]), the Kd was determined as 2.61 µM.

On to VTIGNAYIY, for which the Kd is 3.5 µM in the experiment with HLA-A*01:01 [18], no less than 20 µM with HLA-A*03:01 [12] (setting [26]), 1.05 µM in the experiment with HLA-A*26:01 [14] (setting [26]) and 0.0625 µM with HLA-B*58:01 [17] (setting [26]).

For the sequence VVNDFTVSY, the dissociation constant Kd with HLA-A*03:01 [12] (setting [27]) came out at 0.122 µM; with HLA-A*26:01 [14] (setting [27]) it was 0.225 µM; in the experiment with HLA-B*35:01 (setting [27]) it was 0.0035 µM.
